From paper PMC9974672, “Luteolin protects DYT-PRKRA cells from apoptosis by suppressing PKR activation” (Frontiers in Pharmacology, 2023)
Changes are numbered by the printed parent chain. Names and notes keep the numbering of the source.

B1: DD (S246D, S287D) phosphomimic mutant PACT fused to the VP16 activation domain (mammalian two-hybrid prey) (natural protein, UniProt O75569 1-313, looked up)
chain: MSQSRHRAEAPPLEREDSGTFSLGKMITAKPGKTPIQVLHEYGMKTKNIPVYECERSDVQIHVPTFTFRVTVGDITCTGEGTSKKLAKHRAAEAAINILKANASICFAVPDPLMPDPSKQPKNQLNPIGSLQELAIHHGWRLPEYTLSQEGGPAHKREYTTICRLESFMETGKGASKKQAKRNAAEKFLAKFSNISPENHISLTNVVGHSLGCTWHSLRNSPGEKINLLKRSLLSIPNTDYIQLLDEIAKEQGFNITYLDIDELSANGQYQCLAELSTSPITVCHGDGISCGNAQSDAAHNALQYLKIIAERK
notes: PACT ORF with serines 246 and 287 replaced by aspartic acids, in pVP16AASV19N; also called DD PACT; DD mutant; source: mammalian two-hybrid fusion, transfected cells (COS-1 by the methods, HeLa by the legends)
B2: P222L PACT fused to the VP16 activation domain (mammalian two-hybrid prey) (natural protein, UniProt O75569 1-313, looked up)
chain: B1 chain with P222L, D246S, D287S
notes: PACT ORF with the DYT-PRKRA patient mutation P222L, in pVP16AASV19N; Plasmid described in Vaughn et al., 2015; Burnett et al., 2020; also called P222L mutant; source: mammalian two-hybrid fusion, transfected cells (COS-1 by the methods, HeLa by the legends)

Molecular target: T1, PKR fused to the GAL4 DNA-binding domain (mammalian two-hybrid bait) (UniProt P19525 1-551)
T1 construct: also called GAL4-DBD PKR; source: mammalian two-hybrid fusion, transfected cells (COS-1 by the methods, HeLa by the legends)
Experiment: two-hybrid; mammalian two-hybrid, PKR as GAL4-DBD fusion (bait), PACT proteins as VP16-AD fusions (preys), pG5Luc firefly luciferase reporter normalised to pRL-Null; cells untreated, no stress
Settings: partners not purified

T1 sequence (P19525 whole entry, the tested form may be a part): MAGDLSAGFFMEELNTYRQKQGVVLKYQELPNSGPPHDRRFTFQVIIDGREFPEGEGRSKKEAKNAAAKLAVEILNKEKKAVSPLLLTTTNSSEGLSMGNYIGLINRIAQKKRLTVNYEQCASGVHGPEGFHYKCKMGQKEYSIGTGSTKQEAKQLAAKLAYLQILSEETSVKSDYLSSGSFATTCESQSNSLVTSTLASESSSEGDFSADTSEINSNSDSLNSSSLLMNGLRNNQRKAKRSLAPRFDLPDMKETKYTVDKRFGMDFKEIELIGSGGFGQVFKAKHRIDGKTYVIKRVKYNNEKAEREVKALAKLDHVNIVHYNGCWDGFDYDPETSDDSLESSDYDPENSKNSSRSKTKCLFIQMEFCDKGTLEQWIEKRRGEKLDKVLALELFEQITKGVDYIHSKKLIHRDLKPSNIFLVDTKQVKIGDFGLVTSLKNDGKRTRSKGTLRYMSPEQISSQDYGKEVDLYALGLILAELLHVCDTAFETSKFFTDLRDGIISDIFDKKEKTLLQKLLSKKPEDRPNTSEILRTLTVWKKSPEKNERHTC

| fold interaction against wt PACT-PKR (two-hybrid luciferase) | Binder |
| --- | --- |
| > 2 fold | B1 |
| ~3 fold | B2 |
